Drawing on paper PMC3797752 (2013), this text covers Kd for one molecule.

This experiment has as its target wild-type SF162 gp120 (HIV-1 SF162). The experiment in a line: SPR. (In general: Surface plasmon resonance follows binding to a sensor surface in real time, without labels.)

B1: mAb VRC01 (antibody, V domains shown)
VH: QVQLVQSGGQMKKPGESMRISCRASGYEFIDCTLNWIRLAPGKRPEWMGWLKPRGGAVNYARPLQGRVTMTRDVYSDTAFLELRSLTVDDTAVYFCTRGKNCDYNWDFEHWGRGTPVIVSS
VL: EIVLTQSPGTLSLSPGETAIISCRTSQYGSLAWYQQRPGQAPRLVIYSGSTRAAGIPDRFSGSRWGPDYNLTISNLESGDFGVYYCQQYEFFGQGTKVQVD
With B1, the Kd (as a rule, the free concentration of one partner at which half of the binding sites on the other are occupied at equilibrium, for simple one-to-one binding) amounted to 2.08 nM.
